Test results from PMC3817844 (Angewandte Chemie (International ed. in English), 2013).

Target: Glu92 (UniProt position 93, EAFRVEDKDGN)
Test: kinetics
Details: Ca2+-bound (active) protein; the protein is inactive without Ca2+
For “CaM F92E 5R (round 5 variant), affinity tag removed (Gallus gallus; F92E;M144R;H107I;L112R;I85L;A128T)”, the pKa was 6.47±0.03. In the case of “CaM F92E 5R (round 5 variant), with affinity tag (Gallus gallus; F92E;M144R;H107I;L112R;I85L;A128T)”, the pKa is reported as 6.60±0.02. “CaM F92E (full-length calmodulin F92E) (Gallus gallus; F92E)” gave a pKa of 6.98±0.05. In the case of “CaM F92E round 1 variant (F92E/M144R) (Gallus gallus; F92E;M144R)”, the pKa is reported as 7.21±0.06. With “CaM F92E round 2 variant (F92E/M144R/H107I), tag removed (Gallus gallus; F92E;M144R;H107I)” the pKa was 6.73±0.03. For “CaM F92E round 3 variant (F92E/M144R/H107I/L112R) (Gallus gallus; F92E;M144R;H107I;L112R)”, the pKa was 6.70±0.03. In the case of “CaM F92E round 4 variant (F92E/M144R/H107I/L112R/I85L) (Gallus gallus; F92E;M144R;H107I;L112R;I85L)”, the pKa is reported as 6.93±0.03. For “CaM F92E round 6 variant (Gallus gallus; F92E;M144R;H107I;L112R;I85L;A128T;M124L)”, the pKa was 6.67±0.01.

Same assay, conditions: Ca2+-bound (active) protein; the protein is inactive without Ca2+; cited from earlier work
For “AlleyCat (calmodulin C-terminal domain F92E) (Gallus gallus; F92E)”, the pKa is given as 6.9±0.1.

Target: Glu92 (UniProt position 93, EQFRVEDKDGN)
Test: kinetics
Details: Ca2+-bound (active) protein; the protein is inactive without Ca2+
Molecule “AlleyCat7 (calmodulin C-terminal domain with round 7 mutations) (Gallus gallus; F92E;M144R;H107I;L112R;I85L;A128T;M124L;A88Q)” has a pKa of 6.39±0.02. With “CaM F92E round 7 variant, tag removed (Gallus gallus; F92E;M144R;H107I;L112R;I85L;A128T;M124L;A88Q)” the pKa was 6.43±0.02.

Target: AlleyCat; AlleyCat7 (Gallus gallus, UniProt P62149, A129T/A89Q/F93E/H108I/I86L/L113R/M125L/M145R)
Test: inhibition of Kemp elimination
Type: biochemical
Details: not given
In the case of O=[N+]([O-])c1ccc2[nH]nnc2c1 [5-NBT, 5-nitro-benzotriazole], the Ki is reported as 18 µM.
